Holding throughout (assay): anti-FLAG co-immunoprecipitation, SILAC LC-MS
Holding throughout (conditions): chain shown with the change; Ramos PTP1B KO cells; n = 3; read off a plot; scale: log10 SILAC ratio

In one test the target is T1, PLCγ2, P16885.
T1 chain: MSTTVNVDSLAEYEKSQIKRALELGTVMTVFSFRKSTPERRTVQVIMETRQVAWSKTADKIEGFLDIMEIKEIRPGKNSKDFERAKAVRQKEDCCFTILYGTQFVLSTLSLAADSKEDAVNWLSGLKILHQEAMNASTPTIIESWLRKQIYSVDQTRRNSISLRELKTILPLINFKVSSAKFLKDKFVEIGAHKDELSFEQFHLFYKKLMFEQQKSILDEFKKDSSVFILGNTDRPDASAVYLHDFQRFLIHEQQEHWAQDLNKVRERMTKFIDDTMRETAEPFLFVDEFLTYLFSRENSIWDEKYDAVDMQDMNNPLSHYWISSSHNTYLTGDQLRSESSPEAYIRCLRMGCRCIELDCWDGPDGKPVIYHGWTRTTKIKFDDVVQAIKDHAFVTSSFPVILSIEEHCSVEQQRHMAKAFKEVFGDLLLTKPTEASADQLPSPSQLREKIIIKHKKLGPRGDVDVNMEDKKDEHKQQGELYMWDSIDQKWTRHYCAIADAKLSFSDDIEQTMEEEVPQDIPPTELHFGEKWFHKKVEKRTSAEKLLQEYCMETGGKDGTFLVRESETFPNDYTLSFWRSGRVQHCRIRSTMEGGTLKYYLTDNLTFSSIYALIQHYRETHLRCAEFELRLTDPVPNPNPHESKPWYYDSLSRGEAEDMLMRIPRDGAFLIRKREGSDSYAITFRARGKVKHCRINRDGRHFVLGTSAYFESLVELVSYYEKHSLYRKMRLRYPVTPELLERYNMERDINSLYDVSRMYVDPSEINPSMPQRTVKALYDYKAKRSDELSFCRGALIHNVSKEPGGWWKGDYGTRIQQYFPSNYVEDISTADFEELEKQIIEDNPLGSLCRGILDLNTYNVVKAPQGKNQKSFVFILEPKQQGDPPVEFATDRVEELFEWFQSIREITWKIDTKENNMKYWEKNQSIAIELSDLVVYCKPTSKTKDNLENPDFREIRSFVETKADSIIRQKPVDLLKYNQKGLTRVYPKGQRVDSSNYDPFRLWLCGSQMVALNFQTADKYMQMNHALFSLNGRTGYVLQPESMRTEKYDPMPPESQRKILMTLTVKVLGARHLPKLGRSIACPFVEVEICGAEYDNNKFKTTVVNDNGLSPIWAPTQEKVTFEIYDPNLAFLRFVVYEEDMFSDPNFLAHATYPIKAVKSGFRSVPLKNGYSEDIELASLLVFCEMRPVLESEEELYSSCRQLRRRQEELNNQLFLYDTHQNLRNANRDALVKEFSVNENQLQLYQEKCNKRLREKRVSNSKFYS

The target of another test is T2, PLCγ1, P19174.
T2 chain: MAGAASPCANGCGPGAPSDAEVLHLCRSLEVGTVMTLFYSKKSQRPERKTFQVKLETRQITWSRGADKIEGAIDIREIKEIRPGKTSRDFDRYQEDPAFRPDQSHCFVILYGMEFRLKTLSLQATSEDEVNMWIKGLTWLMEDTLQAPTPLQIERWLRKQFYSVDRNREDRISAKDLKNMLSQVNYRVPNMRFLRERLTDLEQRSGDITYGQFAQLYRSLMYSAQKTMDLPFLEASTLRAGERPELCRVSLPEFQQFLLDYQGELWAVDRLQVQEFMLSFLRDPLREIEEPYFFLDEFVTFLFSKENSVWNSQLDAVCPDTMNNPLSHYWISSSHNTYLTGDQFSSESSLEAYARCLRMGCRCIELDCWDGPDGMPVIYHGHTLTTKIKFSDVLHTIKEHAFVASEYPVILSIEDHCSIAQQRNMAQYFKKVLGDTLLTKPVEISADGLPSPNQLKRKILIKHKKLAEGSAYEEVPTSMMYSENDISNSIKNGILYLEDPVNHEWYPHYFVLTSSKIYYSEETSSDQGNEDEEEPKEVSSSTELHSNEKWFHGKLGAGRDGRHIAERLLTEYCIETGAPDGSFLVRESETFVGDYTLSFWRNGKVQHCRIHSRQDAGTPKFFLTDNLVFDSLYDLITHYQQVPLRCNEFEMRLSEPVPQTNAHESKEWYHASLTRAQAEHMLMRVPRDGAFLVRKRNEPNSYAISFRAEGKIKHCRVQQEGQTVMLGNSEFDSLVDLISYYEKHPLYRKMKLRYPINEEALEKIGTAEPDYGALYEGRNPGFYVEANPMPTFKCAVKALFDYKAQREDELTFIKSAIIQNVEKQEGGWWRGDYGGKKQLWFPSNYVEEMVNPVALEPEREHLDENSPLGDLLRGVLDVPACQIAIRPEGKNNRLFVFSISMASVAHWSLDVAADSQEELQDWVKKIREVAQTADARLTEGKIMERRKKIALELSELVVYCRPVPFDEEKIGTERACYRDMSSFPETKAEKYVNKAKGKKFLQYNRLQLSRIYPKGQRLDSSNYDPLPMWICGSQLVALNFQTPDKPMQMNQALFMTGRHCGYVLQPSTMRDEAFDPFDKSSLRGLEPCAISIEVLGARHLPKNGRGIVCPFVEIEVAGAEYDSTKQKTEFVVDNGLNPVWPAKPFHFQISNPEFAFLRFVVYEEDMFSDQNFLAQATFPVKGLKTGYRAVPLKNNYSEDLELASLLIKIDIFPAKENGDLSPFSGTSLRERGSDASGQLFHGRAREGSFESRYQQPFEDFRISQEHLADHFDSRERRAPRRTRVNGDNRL

In test [1] the target is growth factor receptor-bound protein 2 (GRB2), P62993.
In test [2] the target is T3, intersectin-2 (ITSN2), Q9NZM3.
T3 chain: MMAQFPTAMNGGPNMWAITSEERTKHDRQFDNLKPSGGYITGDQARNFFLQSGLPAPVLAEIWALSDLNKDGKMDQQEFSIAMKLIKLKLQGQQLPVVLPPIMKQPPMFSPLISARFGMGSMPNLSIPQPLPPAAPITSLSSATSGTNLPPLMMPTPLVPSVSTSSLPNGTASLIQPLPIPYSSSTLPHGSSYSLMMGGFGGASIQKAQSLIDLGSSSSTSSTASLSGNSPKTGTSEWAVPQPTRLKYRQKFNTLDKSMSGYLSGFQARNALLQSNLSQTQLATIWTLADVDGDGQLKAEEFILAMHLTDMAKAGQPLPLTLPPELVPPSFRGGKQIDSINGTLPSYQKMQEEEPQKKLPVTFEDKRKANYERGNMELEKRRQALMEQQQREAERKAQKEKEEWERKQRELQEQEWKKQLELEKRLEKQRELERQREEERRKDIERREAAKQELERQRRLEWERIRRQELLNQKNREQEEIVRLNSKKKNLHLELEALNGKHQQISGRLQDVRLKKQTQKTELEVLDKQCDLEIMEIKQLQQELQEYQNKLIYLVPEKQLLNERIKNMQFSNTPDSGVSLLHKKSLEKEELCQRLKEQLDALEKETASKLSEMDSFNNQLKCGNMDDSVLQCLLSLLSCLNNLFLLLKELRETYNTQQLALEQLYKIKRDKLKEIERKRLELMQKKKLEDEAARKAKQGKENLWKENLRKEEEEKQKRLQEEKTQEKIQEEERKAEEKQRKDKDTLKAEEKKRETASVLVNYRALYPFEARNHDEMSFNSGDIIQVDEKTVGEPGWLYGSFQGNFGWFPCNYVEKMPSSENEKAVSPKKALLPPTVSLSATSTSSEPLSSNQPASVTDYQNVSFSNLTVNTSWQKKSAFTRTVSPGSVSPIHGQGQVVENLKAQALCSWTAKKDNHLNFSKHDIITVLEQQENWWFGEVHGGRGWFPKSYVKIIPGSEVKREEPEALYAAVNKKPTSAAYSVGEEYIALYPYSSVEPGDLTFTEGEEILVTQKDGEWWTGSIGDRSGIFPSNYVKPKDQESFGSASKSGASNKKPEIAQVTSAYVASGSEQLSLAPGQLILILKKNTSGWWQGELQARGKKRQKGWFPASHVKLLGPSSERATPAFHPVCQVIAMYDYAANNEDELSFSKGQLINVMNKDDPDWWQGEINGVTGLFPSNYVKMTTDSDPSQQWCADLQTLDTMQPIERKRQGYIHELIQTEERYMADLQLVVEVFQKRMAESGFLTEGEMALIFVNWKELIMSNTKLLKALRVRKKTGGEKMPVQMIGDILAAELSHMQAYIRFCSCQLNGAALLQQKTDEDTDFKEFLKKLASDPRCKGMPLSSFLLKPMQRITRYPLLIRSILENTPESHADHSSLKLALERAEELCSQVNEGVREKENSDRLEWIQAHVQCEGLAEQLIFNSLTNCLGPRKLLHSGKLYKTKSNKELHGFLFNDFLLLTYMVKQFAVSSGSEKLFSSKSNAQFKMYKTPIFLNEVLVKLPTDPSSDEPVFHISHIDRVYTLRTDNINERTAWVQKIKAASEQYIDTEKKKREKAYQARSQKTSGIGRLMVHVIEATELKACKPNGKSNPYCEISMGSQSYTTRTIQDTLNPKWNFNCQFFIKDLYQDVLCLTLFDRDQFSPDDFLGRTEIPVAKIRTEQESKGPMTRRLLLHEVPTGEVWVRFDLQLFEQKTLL

Test [3] addresses amyloid-like protein 2 (APLP2), Q06481.
The target of test [4] is T4, epidermal growth factor receptor substrate 15-like 1 (EPS15L1), Q9UBC2.
T4 chain: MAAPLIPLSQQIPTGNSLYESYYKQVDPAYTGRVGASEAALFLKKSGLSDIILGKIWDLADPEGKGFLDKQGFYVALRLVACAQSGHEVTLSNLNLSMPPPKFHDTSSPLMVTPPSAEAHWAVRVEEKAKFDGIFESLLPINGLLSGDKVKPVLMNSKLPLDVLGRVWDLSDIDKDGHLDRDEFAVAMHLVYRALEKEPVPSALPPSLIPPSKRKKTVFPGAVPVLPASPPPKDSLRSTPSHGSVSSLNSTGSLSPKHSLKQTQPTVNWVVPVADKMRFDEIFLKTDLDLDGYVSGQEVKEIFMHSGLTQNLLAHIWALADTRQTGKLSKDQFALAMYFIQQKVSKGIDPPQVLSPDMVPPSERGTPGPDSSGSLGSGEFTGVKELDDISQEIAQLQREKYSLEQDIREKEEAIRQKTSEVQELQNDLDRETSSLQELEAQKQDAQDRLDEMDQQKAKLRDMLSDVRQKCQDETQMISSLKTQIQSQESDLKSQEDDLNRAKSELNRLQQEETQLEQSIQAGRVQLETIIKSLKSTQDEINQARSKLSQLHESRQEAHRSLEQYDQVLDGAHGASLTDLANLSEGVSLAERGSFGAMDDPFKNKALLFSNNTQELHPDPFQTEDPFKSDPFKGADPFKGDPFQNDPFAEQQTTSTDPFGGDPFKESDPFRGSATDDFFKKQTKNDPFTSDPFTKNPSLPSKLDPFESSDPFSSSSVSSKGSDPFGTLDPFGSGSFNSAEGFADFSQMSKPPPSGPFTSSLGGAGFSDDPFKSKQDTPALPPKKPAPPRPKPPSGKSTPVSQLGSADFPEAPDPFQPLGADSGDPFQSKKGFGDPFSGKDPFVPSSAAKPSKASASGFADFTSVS

In test [5] the target is E3 ubiquitin-protein ligase CBL, P22681.

Among the data in PMC8473724 are enrichment values, retold here.

Sequence of amyloid-like protein 2 (APLP2), Q06481 (Q06481 32-763): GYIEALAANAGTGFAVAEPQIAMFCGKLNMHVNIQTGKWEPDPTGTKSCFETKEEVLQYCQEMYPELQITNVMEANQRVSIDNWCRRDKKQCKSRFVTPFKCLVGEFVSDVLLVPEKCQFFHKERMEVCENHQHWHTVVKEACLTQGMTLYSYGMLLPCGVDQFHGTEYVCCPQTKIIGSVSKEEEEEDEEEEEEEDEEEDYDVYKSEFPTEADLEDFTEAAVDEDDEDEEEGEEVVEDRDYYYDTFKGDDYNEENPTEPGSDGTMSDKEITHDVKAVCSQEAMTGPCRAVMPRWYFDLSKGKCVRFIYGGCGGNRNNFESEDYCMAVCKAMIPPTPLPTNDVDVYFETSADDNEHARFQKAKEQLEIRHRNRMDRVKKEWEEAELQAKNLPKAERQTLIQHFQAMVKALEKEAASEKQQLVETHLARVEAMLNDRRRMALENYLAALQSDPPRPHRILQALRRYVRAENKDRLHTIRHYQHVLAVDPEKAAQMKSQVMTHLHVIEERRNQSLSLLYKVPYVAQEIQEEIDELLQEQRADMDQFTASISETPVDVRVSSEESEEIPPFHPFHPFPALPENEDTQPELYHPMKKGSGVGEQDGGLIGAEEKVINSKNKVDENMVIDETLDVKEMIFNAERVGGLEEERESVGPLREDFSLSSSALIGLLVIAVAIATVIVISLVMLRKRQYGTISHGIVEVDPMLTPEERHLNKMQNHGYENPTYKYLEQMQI

B1: D181A; Y46F (protein)
chain: MEMEKEFEQIDKSGSWAAIYQDIRHEASDFPCRVAKLPKNKNRNRFRDVSPFDHSRIKLHQEDNDYINASLIKMEEAQRSYILTQGPLPNTCGHFWEMVWEQKSRGVVMLNRVMEKGSLKCAQYWPQKEEKEMIFEDTNLKLTLISEDIKSYYTVRQLELENLTTQETREILHFHYTTWPAFGVPESPASFLNFLFKVRESGSLSPEHGPVVVHCSAGIGRSGTFCLADTCLLLMDKRKDPSSVDIKKVLLEMRKFRMGLIQTADQLRFSYLAVIEGAKFIMGDSSVQDQWKELSHEDLEPPPEHIPPPPRPPKRILEPHNGKCREFFPNHQWVKEETQEDKDCPIKEEKGSPLNAAPYGIESMSQDTEVRSRVVGGSLRGAQAASPAKGEPSLPEKDEDHALSY
B1: the enrichment was found to be 0.48 with PLCγ2, P16885; 0.87 in the test with PLCγ1, P19174; 0.87 in test [1]; 0.62 in test [2]; 1.3 in test [3]; 0.59 in test [4]. For the same molecule, in test [5], the enrichment came out at 0.74.
